{
  "source": "patent US20090035321A1",
  "about": "“Intercellular adhesion molecules and their binding ligands” (Boehringer Ingelheim Pharmaceuticals, Inc., published 2009)",
  "binders": {"B1": {"name": "human rhinovirus 14 (HRV14) (other)", "chain": "GAQVSTQKSGSHENQNILTNGSNQTFTVINYYKDAASTSSAGQSLSMDPSKFTEPVKDLMLKGAPALNSPNVEACGYSDRVQQITLGNSTITTQEAANAVVCYAEWPEYLPDVDASDVNKTSKPDTSVCRFYTLDSKTWTTGSKGWCWKLPDALKDMGVFGQNMFFHSLGRSGYTVHVQCNATKFHSGCLLVVVIPEHQLASHEGGNVSVKYTFTHPGERGIDLSSANEVGGPVKDVIYNMNGTLLGNLLIFPHQFINLRTNNTATIVIPYINSVPIDSMTRHNNVSLMVIPIAPLTVPTGATPSLPITVTIAPMCTEFSGIRSKSIVPQGLPTTTLPGSGQFLTTDDRQSPSALPNYEPTPRIHIPGKVHNLLEIIQVDTLIPMNNTHTKDEVNSYLIPLNANRQNEQVFGTNLFIGDGVFKTTLLGEIVQYYTHWSGSLRFSLMYTGPALSSAKLILAYTPPGARGPQDRREAMLGTHVVWDIGLQSTIVMTIPWTSGVQFRYTDPDTYTSAGFLSCWYQTSLILPPETTGQVYLLSFISACPDFKLRLMKDTQTISQTVALTEGLGDELEEVIVEKTKQTVASISSGPKHTQKVPILTANETGATMPVLPSDSIETRTTYMHFNGSETDVECFLGRAACVHVTEIQNKDATGIDNHREAKLFNDWKINLSSLVQLRKKLELFTYVRFDSEYTILATASQPDSANYSSNLVVQAMYVPPGAPNPKEWDDYTWQSASNPSVFFKVGDTSRFSVPYVGLASAYNCFYDGYSHDDAETQYGITVLNHMGSMAFRIVNEHDEHKTLVKIRVYHRAKHVEAWIPRAPRALPYTSIGRTNYPKNTEPVIKKRKGDIKSY", "modifications": "[35S]-Met labeled"}},
  "assay_in_all_cases": "35S-HRV14 on COS cells",
  "key": {"ICAM-1 N103/K": {"target": "ICAM-1 N103/K (human, UniProt P05362)", "experimental": "(§1) COS cells were seeded into 10 cm tissue culture plates such that they would be 50% confluent by 16-24 hrs. COS cells were then washed once with TBS and incubated for 4 hrs with 4 ml RPMI containing 10% Nu sera (Collaborative) 5 pg/ml chloroquine, 3 μg of mutant plasmid and 200 μg/ml DEAE-dextran sulfate. Cells were then washed with 10% DMSO/PBS followed by PBS and cultured 16 hrs in culture media. Culture media was replaced with fresh media and at 48 hrs post transfection (OS cells were suspended by trypsin/EDTA (Gibco) treatment and divided into 2, 10 cm plates as well as 24 well tissue culture plates for HRV binding. At 72 hrs cells were harvested from 10 cm plates with 5 mM EDTA/HBSS and processed for adhesion to LFA-1 coated plastic and immunofluorescence.\n(§2) Binding occurred in 1 hr at 35° C. in a 5% CO₂ atmosphere with horizontal rotation (100 rpm). Unbound [³⁵S] HRV14 was aspirated, COS cells were gently washed with 150 ml of HRV buffer and then solubilized with 1% SDS in PBS for scintillation counting.\n(§3) In Table 25, the notation for the mutations uses the one-letter code for the wild-type sequence followed by a slash and the one-letter code for the corresponding mutant sequence. The position of the first amino acid within the sequence is indicated. Wild type residues precede the slash followed by the residues they were substituted for in the mutant. COS cells expressing ICAM-1 mutants were tested for adherence to LFA-1 coated plastic and for binding 35S met-labeled HRV14. […] Binding is presented as mean and standard error (SE) for multiple experiments (n). […] The specific linear fluorescence intensity (SLFI) of CL203 for each mutant is normalized to that of wild type CL203 SLFI (% WT) as discussed above. The SLFI of RR1/1, R6.5 and LB-2 SLFI is normalized to the CL203 SLFI of the mutant (% CL203) as described above."}, "ICAM-1 D71GQS/NGEL": {"target": "ICAM-1 D71GQS/NGEL (human, UniProt P05362)", "experimental": "as §1, §2, §3"}, "ICAM-1 S24/A": {"target": "ICAM-1 S24/A (human, UniProt P05362)", "experimental": "as §1, §2, §3"}, "ICAM-1 K128/R": {"target": "ICAM-1 K128/R (human, UniProt P05362)", "experimental": "as §1, §2, §3"}, "ICAM-1 R13/Q": {"target": "ICAM-1 R13/Q (human, UniProt P05362)", "experimental": "as §1, §2, §3"}, "ICAM-1 R49KV/EKL": {"target": "ICAM-1 R49KV/EKL (human, UniProt P05362)", "experimental": "as §1, §2, §3"}, "ICAM-1 D71/N": {"target": "ICAM-1 D71/N (human, UniProt P05362)", "experimental": "as §1, §2, §3"}, "ICAM-1 Y66/T": {"target": "ICAM-1 Y66/T (human, UniProt P05362)", "experimental": "as §1, §2, §3"}, "ICAM-1 K40/A": {"target": "ICAM-1 K40/A (human, UniProt P05362)", "experimental": "as §1, §2, §3"}, "ICAM-1 N156/E": {"target": "ICAM-1 N156/E (human, UniProt P05362)", "experimental": "as §1, §2, §3"}, "ICAM-1 H152HGA/EEGS": {"target": "ICAM-1 H152HGA/EEGS (human, UniProt P05362)", "experimental": "as §1, §2, §3"}, "ICAM-1 K39KE/ERQ": {"target": "ICAM-1 K39KE/ERQ (human, UniProt P05362)", "experimental": "as §1, §2, §3"}, "ICAM-1 E111GGA/KAGS": {"target": "ICAM-1 E111GGA/KAGS (human, UniProt P05362)", "experimental": "as §1, §2, §3"}, "ICAM-1 S3/T": {"target": "ICAM-1 S3/T (human, UniProt P05362)", "experimental": "as §1, §2, §3"}, "ICAM-1 D60/Q": {"target": "ICAM-1 D60/Q (human, UniProt P05362)", "experimental": "as §1, §2, §3"}, "ICAM-1 Q1T/KA": {"target": "ICAM-1 Q1T/KA (human, UniProt P05362)", "experimental": "as §1, §2, §3"}, "ICAM-1 N175/A": {"target": "ICAM-1 N175/A (human, UniProt P05362)", "experimental": "as §1, §2, §3"}, "ICAM-1 T75/A": {"target": "ICAM-1 T75/A (human, UniProt P05362)", "experimental": "as §1, §2, §3"}, "ICAM-1 K8/E": {"target": "ICAM-1 K8/E (human, UniProt P05362)", "experimental": "as §1, §2, §3"}, "ICAM-1 D203TQ/TAD": {"target": "ICAM-1 D203TQ/TAD (human, UniProt P05362)", "experimental": "as §1, §2, §3"}, "ICAM-1 R88V/EA": {"target": "ICAM-1 R88V/EA (human, UniProt P05362)", "experimental": "as §1, §2, §3"}, "ICAM-1 D229QR/HLE": {"target": "ICAM-1 D229QR/HLE (human, UniProt P05362)", "experimental": "as §1, §2, §3"}, "ICAM-1 R166PQ/EPA": {"target": "ICAM-1 R166PQ/EPA (human, UniProt P05362)", "experimental": "as §1, §2, §3"}, "ICAM-1 D71/E": {"target": "ICAM-1 D71/E (human, UniProt P05362)", "experimental": "as §1, §2, §3"}, "ICAM-1 T20CS/ACT": {"target": "ICAM-1 T20CS/ACT (human, UniProt P05362)", "experimental": "as §1, §2, §3"}, "ICAM-1 D60/N": {"target": "ICAM-1 D60/N (human, UniProt P05362)", "experimental": "as §1, §2, §3"}, "ICAM-1 N56V/HM": {"target": "ICAM-1 N56V/HM (human, UniProt P05362)", "experimental": "as §1, §2, §3"}, "ICAM-1 M64/I": {"target": "ICAM-1 M64/I (human, UniProt P05362)", "experimental": "as §1, §2, §3"}, "ICAM-1 N175TSA/QTLG": {"target": "ICAM-1 N175TSA/QTLG (human, UniProt P05362)", "experimental": "as §1, §2, §3"}},
  "data": [
    {"binder": "B1", "values": [
      {"measurement": "HRV Binding %", "setting": "ICAM-1 N103/K", "value": "13 % of wild type"},
      {"measurement": "HRV Binding %", "setting": "ICAM-1 D71GQS/NGEL", "value": "21 % of wild type"},
      {"measurement": "HRV Binding %", "setting": "ICAM-1 S24/A", "value": "99 % of wild type"},
      {"measurement": "HRV Binding %", "setting": "ICAM-1 K128/R", "value": "137 % of wild type"},
      {"measurement": "HRV Binding %", "setting": "ICAM-1 R13/Q", "value": "60 % of wild type"},
      {"measurement": "HRV Binding %", "setting": "ICAM-1 R49KV/EKL", "value": "49 % of wild type"},
      {"measurement": "HRV Binding %", "setting": "ICAM-1 D71/N", "value": "62 % of wild type"},
      {"measurement": "HRV Binding %", "setting": "ICAM-1 Y66/T", "value": "204 % of wild type"},
      {"measurement": "HRV Binding %", "setting": "ICAM-1 K40/A", "value": "89 % of wild type"},
      {"measurement": "HRV Binding %", "setting": "ICAM-1 N156/E", "value": "107 % of wild type"},
      {"measurement": "HRV Binding %", "setting": "ICAM-1 H152HGA/EEGS", "value": "82 % of wild type"},
      {"measurement": "HRV Binding %", "setting": "ICAM-1 K39KE/ERQ", "value": "61 % of wild type"},
      {"measurement": "HRV Binding %", "setting": "ICAM-1 E111GGA/KAGS", "value": "162 % of wild type"},
      {"measurement": "HRV Binding %", "setting": "ICAM-1 S3/T", "value": "196 % of wild type"},
      {"measurement": "HRV Binding %", "setting": "ICAM-1 D60/Q", "value": "20 % of wild type"},
      {"measurement": "HRV Binding %", "setting": "ICAM-1 Q1T/KA", "value": "11 % of wild type"},
      {"measurement": "HRV Binding %", "setting": "ICAM-1 N175/A", "value": "129 % of wild type"},
      {"measurement": "HRV Binding %", "setting": "ICAM-1 T75/A", "value": "119 % of wild type"},
      {"measurement": "HRV Binding %", "setting": "ICAM-1 K8/E", "value": "132 % of wild type"},
      {"measurement": "HRV Binding %", "setting": "ICAM-1 D203TQ/TAD", "value": "111 % of wild type"},
      {"measurement": "HRV Binding %", "setting": "ICAM-1 R88V/EA", "value": "152 % of wild type"},
      {"measurement": "HRV Binding %", "setting": "ICAM-1 D229QR/HLE", "value": "106 % of wild type"},
      {"measurement": "HRV Binding %", "setting": "ICAM-1 R166PQ/EPA", "value": "25 % of wild type"},
      {"measurement": "HRV Binding %", "setting": "ICAM-1 D71/E", "value": "140 % of wild type"},
      {"measurement": "HRV Binding %", "setting": "ICAM-1 T20CS/ACT", "value": "130 % of wild type"},
      {"measurement": "HRV Binding %", "setting": "ICAM-1 D60/N", "value": "89 % of wild type"},
      {"measurement": "HRV Binding %", "setting": "ICAM-1 N56V/HM", "value": "101 % of wild type"},
      {"measurement": "HRV Binding %", "setting": "ICAM-1 M64/I", "value": "107 % of wild type"},
      {"measurement": "HRV Binding %", "setting": "ICAM-1 N175TSA/QTLG", "value": "40 % of wild type"}
    ]}
  ]
}
